From the supplement of paper PMC10126150
± gives the standard deviation of the averaged measurements.

System: ATP
Experiment: switch fluorescence ratio, 500 uM ATP over buffer (Cy3 cluster intensity, sum of 5 cycles each) (fold (ratio)); higher = stronger signal-on switching upon ATP binding; sequences stand for … in TCGTCGGCAGCGTCAGATGTGTATAAGAGACAGTTTTTTTTTTTTTTTTTTTTTTTTT…TC
Conditions: aptamer strand: ATP DNA aptamer (quencher-CACCTGGGGGAGTATTGCGGAGGAAGG + anchor), 100 nM annealed; ATP concentration: 500 uM
Procedure, shortened: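 Clusters carrying Cy3-labelled switching strands on a modified Illumina MiSeq flow-cell were annealed to 100 nM quencher-labelled ATP aptamer and imaged in selection buffer. They were imaged again after 15 min with 500 uM ATP at 22 °C, over five buffer/ATP cycles with NaOH stripping and re-annealing in between. For each cluster, the fluorescence ratio is the summed Cy3 intensity of the target cycles divided by that of the buffer cycles, averaged per switch-domain sequence. Clusters outside 100-1000 RFU were left out.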
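Also: ATP exposure 15 min at 22 °C before imaging.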

Sequence | switch fluorescence ratio
GAGTTCACGT | 1.04 ± 0.013
GAGTTCAGGT | 1.01 ± 0.019
GAGTTCTTG | 0.986 ± 0.023
GAGTTGAATT | 0.993 ± 0.046
GAGTTGCTTA | 1.006 ± 0.01
GAGTTGGGGA | 1 ± 0.036
GAGTTGTCGA | 0.994 ± 0.022
GAGTTGTTGG | 0.968 ± 0.024
GAGTTTAGAT | 0.994 ± 0.018
GAGTTTAGCG | 0.982 ± 0.025
GAGTTTCGTG | 0.965 ± 0.01
GATAAAAGTT | 1.02 ± 0.066
GATAAAGATA | 1.02 ± 0.043
GATAAAGGGT | 1.005 ± 0.0052
GATAAAGTTA | 0.992 ± 0.013
GATAAATGAT | 1 ± 0.02
GATAACATAC | 1.368 ± 0.0047
GATAACGAAG | 1.008 ± 0.006
GATAAGGAAC | 0.9788 ± 0.0072
GATAAGTTGG | 0.935 ± 0.09
GATAATAAGT | 1.01 ± 0.016
GATAATAATT | 0.9969 ± 0.0091
GATAATAGTG | 1.08 ± 0.073
GATAATATGG | 0.9814 ± 0.0094
GATAATATTT | 0.986 ± 0.011

Sequence | switch fluorescence ratio
GATAATCGAG | 1.02 ± 0.018
GATAATGAAC | 1.02 ± 0.02
GATAATTTCT | 0.9886 ± 0.0046
GATACACATG | 1.04 ± 0.021
GATACATGTG | 1.048 ± 0.0086
GATACCCATA | 0.996 ± 0.016
GATACCCTTG | 1.01 ± 0.013
GATACGATGG | 0.983 ± 0.027
GATACTGTAG | 1.09 ± 0.049
GATACTGTTG | 0.988 ± 0.027
GATAGAAGGT | 1.04 ± 0.056
GATAGATGGC | 0.989 ± 0.039
GATAGATTTA | 0.9977 ± 0.0033
GATAGCCAAT | 1.02 ± 0.016
GATAGGAGGA | 1 ± 0.027
GATAGGGTTT | 1.06 ± 0.076
GATAGGTTCG | 0.983 ± 0.016
GATAGTAATG | 1.01 ± 0.018
GATAGTACGG | 1.01 ± 0.015
GATAGTATTT | 1.005 ± 0.0066
GATAGTGAAT | 0.962 ± 0.028
GATAGTGAGA | 1.03 ± 0.011
GATAGTGAGG | 0.9935 ± 0.0021
GATAGTGAGT | 0.988 ± 0.016
GATAGTGCTG | 1.05 ± 0.12

Sequence | switch fluorescence ratio
GATAGTGGCA | 1.03 ± 0.023
GATAGTGTTG | 0.992 ± 0.041
GATAGTTGGT | 1 ± 0.021
GATATACTTT | 0.99 ± 0.027
GATATATCAG | 0.9771 ± 0.0017
GATATGAGCG | 1.002 ± 0.0018
GATATGATAC | 1.077 ± 0.008
GATATGCCTG | 1.01 ± 0.069
GATATGTGGA | 0.995 ± 0.032
GATATTAAGC | 1.01 ± 0.026
GATATTAATT | 0.9784 ± 0.0031
GATATTAGGC | 0.9858 ± 0.009
GATATTATTC | 1.05 ± 0.079
GATATTGGTG | 1.024 ± 0.003
GATATTTGGT | 0.989 ± 0.048
GATATTTTTT | 0.989 ± 0.012
GATCAATGGG | 0.997 ± 0.036
GATCAGATGT | 0.958 ± 0.048
GATCAGCCCC | 1.02 ± 0.031
GATCAGTTTT | 0.977 ± 0.016
GATCATAATA | 0.995 ± 0.043
GATCATCGGG | 0.995 ± 0.015
GATCATGTAC | 1.14 ± 0.036
GATCATGTTT | 0.98194 ± 0.00037
GATCATTCTG | 0.966 ± 0.036

Sequence | switch fluorescence ratio
GATCCAAGGG | 1.01 ± 0.021
GATCCACGTG | 1.03 ± 0.015
GATCCCCCCC | 1.06 ± 0.03
GATCCGAGAC | 1.516 ± 0.0088
GATCCGGCGT | 1.03 ± 0.053
GATCCTTGGG | 1.022 ± 0.0056
GATCGACTTT | 0.958 ± 0.012
GATCGAGGGA | 1.04 ± 0.14
GATCGAGTTA | 1.034 ± 0.0073
GATCGGCGCG | 0.986 ± 0.025
GATCGGGGTT | 0.994 ± 0.036
GATCGGTAAA | 0.999 ± 0.013
GATCGTAATT | 1.06 ± 0.0044
GATCGTCTGC | 0.925 ± 0.035
GATCTATGTC | 0.989 ± 0.066
GATCTATGTG | 1.01 ± 0.042
GATCTATGTT | 0.996 ± 0.018
GATCTGAACT | 1 ± 0.059
GATCTGCACG | 0.9947 ± 0.0032
GATCTGTCAG | 1.01 ± 0.021
GATCTTGCCT | 1.02 ± 0.026
GATGAAAGTG | 0.99 ± 0.025
GATGAACGTT | 0.984 ± 0.041
GATGAAGGTG | 1.28 ± 0.061
GATGAAGTTG | 0.971 ± 0.029

Sequence | switch fluorescence ratio
GATGAGCCTA | 1.01 ± 0.073
GATGAGGGCG | 1.14 ± 0.23
GATGAGGGGG | 1.03 ± 0.09
GATGAGTATA | 1 ± 0.021
GATGAGTGTG | 0.964 ± 0.041
GATGATATGG | 0.9852 ± 0.0039
GATGATCTTT | 0.966 ± 0.014
GATGATTTGG | 1.02 ± 0.021
GATGATTTTG | 0.979 ± 0.047
GATGCAAAGG | 1.131 ± 0.011
GATGCAGTGT | 1.05 ± 0.014
GATGCAGTTT | 1.03 ± 0.019
GATGCGAAAT | 1.06 ± 0.023
GATGCGCGTG | 1 ± 0.019
GATGCGGCGT | 1.04 ± 0.021
GATGCGTATG | 0.997 ± 0.02
GATGCTGGGT | 1.01 ± 0.014
GATGGAACGG | 1.05 ± 0.039
GATGGACGTT | 0.995 ± 0.035
GATGGACTTT | 1.03 ± 0.013
GATGGAGTAA | 1.08 ± 0.042
GATGGATAGT | 0.992 ± 0.02
GATGGCGGTG | 0.995 ± 0.00091
GATGGGCACT | 1.05 ± 0.029
GATGGGCGGG | 1.03 ± 0.055

Sequence | switch fluorescence ratio
GATGGGGAGG | 0.98 ± 0.032
GATGGGGGAG | 0.999 ± 0.018
GATGGGGGGC | 1.01 ± 0.043
GATGGGGTTT | 1 ± 0.014
GATGGGTAAA | 0.992 ± 0.029
GATGGTGGTG | 1 ± 0.029
GATGGTTTGA | 1.02 ± 0.021
GATGTAAACG | 1.02 ± 0.026
GATGTAAGAA | 0.993 ± 0.028
GATGTAAGGT | 1.02 ± 0.029
GATGTAATAG | 1.57 ± 0.19
GATGTAGGAG | 0.971 ± 0.019
GATGTAGGGC | 1 ± 0.028
GATGTATAGA | 1.01 ± 0.022
GATGTATATT | 1.002 ± 0.004
GATGTATGTG | 1.02 ± 0.042
GATGTCTAGT | 0.983 ± 0.015
GATGTCTGGG | 0.959 ± 0.027
GATGTGAATT | 1.02 ± 0.011
GATGTGATTC | 1.04 ± 0.027
GATGTGGGGG | 0.99 ± 0.028
GATGTGGGTA | 0.992 ± 0.045
GATGTGGGTG | 0.9957 ± 0.0054
GATGTGGGTT | 1.03 ± 0.032
GATGTGTTTT | 0.974 ± 0.02

Sequence | switch fluorescence ratio
GATGTTAAGC | 0.9867 ± 0.0095
GATGTTATCG | 0.99 ± 0.015
GATGTTGATT | 0.997 ± 0.014
GATGTTGTGA | 0.9999 ± 0.0076
GATGTTGTTG | 0.997 ± 0.054
GATGTTTAGT | 1.04 ± 0.018
GATTAAAAGG | 1.017 ± 0.0067
GATTAAATAG | 0.9988 ± 0.0032
GATTAATGGC | 1.04 ± 0.052
GATTACATTT | 1.03 ± 0.022
GATTAGGGGA | 1.01 ± 0.015
GATTAGGGGG | 1.02 ± 0.043
GATTAGTGTT | 1.01 ± 0.021
GATTATGGGG | 1.01 ± 0.013
GATTATTGGG | 0.988 ± 0.036
GATTCCCTAT | 0.99995 ± 0.00076
GATTCCTCAT | 1.015 ± 0.0095
GATTCGGTCT | 1.02 ± 0.058
GATTCGGTTG | 0.9897 ± 0.0011
GATTCGTACG | 1.01 ± 0.016
GATTCTCGGG | 1.01 ± 0.016
GATTCTTATG | 1.03 ± 0.036
GATTCTTGAA | 1.01 ± 0.22
GATTGAATAT | 0.983 ± 0.032
GATTGAATCC | 1.01 ± 0.059

Sequence | switch fluorescence ratio
GATTGAATTG | 0.948 ± 0.027
GATTGAGAAG | 0.996 ± 0.023
GATTGAGTAG | 0.986 ± 0.016
GATTGGCGAG | 0.998 ± 0.011
GATTGGGCTT | 0.998 ± 0.0097
GATTGGTGGC | 1.04 ± 0.049
GATTGTACGA | 1.01 ± 0.031
GATTGTACTA | 0.998 ± 0.019
GATTGTAGTG | 0.993 ± 0.032
GATTGTGCGG | 0.981 ± 0.025
GATTGTGCTG | 0.988 ± 0.01
GATTGTGGAC | 1.1 ± 0.063
GATTTAGAGC | 0.973 ± 0.037
GATTTAGCTA | 1.014 ± 0.0034
GATTTAGGAC | 0.967 ± 0.044
GATTTAGGGA | 0.995 ± 0.039
GATTTATGAC | 1.02 ± 0.038
GATTTCAAAC | 0.9817 ± 0.0045
GATTTCATAG | 1.02 ± 0.063
GATTTGAAAC | 1 ± 0.031
GATTTGAGGG | 0.973 ± 0.032
GATTTGCCGA | 1.034 ± 0.005
GATTTGGAAG | 1.01 ± 0.024
GATTTGGAGA | 1 ± 0.017
GATTTGGCGA | 0.992 ± 0.011
